B1: Hammerhead Ribozyme (parent)
chain: ACCGGAUGUGCUUUCCGGUCUGAUGAGUCCGUGAGGACGAAACAG

Variants of: B1
Assay: self-cleavage, relative activity (ratio to wild type); higher = more cleavage; co-transcriptional

Row | Variant | self-cleavage
1 | ACUGGAUGUGCUUUCCGGUCUGAUCAGUCCGUGAGGACGAAACAG [C3U G25C] | 0.315
2 | ACCGGAUGUGCUUUCCGGUCUGAUGAGUCUGUGUGGACGAAACAG [C30U A34U] | 0.93
3 | ACCGGAUGUGCUUUCCGGUCUGAUGAGUCCGUGAGGACGAAAUAG [C43U] | 0.608
4 | ACCGGAUGUGCUUUCCGGUCUGAUGAUUCAGUGAGGACGAAACAG [G27U C30A] | 0.317
5 | ACAGGAUGUGCUUUCCGGUCUGAUGAGUCCGUGGGGACGAAACAG [C3A A34G] | 0.515
6 | ACCGGAUGUGCUUUCCGGUCUGAUGAGACCGUGAGGACGAAACCG [U28A A44C] | 0.38
7 | ACCGGAUGUGCUUUCCGGUCUGAUGAGUCGGUGUGGACGAAACAG [C30G A34U] | 0.888
8 | ACCGGAUGUGCUUUCCUGUCUGAUGAGUCCGUGAGGACCAAACAG [G17U G39C] | 0.348
9 | ACCGGAUGUGCUUUCCGGUCUGAUGAGUCUGUCAGGACGAAACAG [C30U G33C] | 0.714
10 | CCCUGAUGUGCUUUCCGGUCUGAUGAGUCCGUGAGGACGAAACAG [A1C G4U] | 0.353
11 | ACCGGAUGUGCUUUGCGGUCUGAUGAGUCCGUGAGCACGAAACAG [C15G G36C] | 0.284
12 | ACCGUAUGUGCUUUCCGGUCUGAUGAGUCCGUUAGGACGAAACAG [G5U G33U] | 1.06
13 | ACCGGAUUUGCUUUUCGGUCUGAUGAGUCCGUGAGGACGAAACAG [G8U C15U] | 1.05
14 | ACCGGAUGUGCUUUCCGGUCUGAUGGGUCCGUGAGGACGAGACAG [A26G A41G] | 0.284
15 | ACCGGAAGUGCUUUCCGGUCUGAUGAGUCCGUGAGGGCGAAACAG [U7A A37G] | 0.907
16 | ACCGGAUGAGCUUUCAGGUCUGAUGAGUCCGUGAGGACGAAACAG [U9A C16A] | 1.15
17 | ACCGGAUGUGCUUUCCUGUCUGAUGAGUCCGUGAGCACGAAACAG [G17U G36C] | 0.336
18 | ACCGGAUGUGAUUUCCGGUCUGAUGAGUCAGUGAGGACGAAACAG [C11A C30A] | 1.1
19 | ACCGGAUGUGCUUUCCGGUCUGAUAAGUCCGUGAGGGCGAAACAG [G25A A37G] | 0.351

Row | Variant | self-cleavage
20 | ACCGGAUGUGAUUUCCGGUCUGAUGACUCCGUGAGGACGAAACAG [C11A G27C] | 0.724
21 | ACCGGAUGUGCCUUCCGGUCUGAUGAGUCCGUGGGGACGAAACAG [U12C A34G] | 1.09
22 | ACCGGAUGUGCUUUCCGGUCUGAUGAGUCCGUAAGGUCGAAACAG [G33A A37U] | 0.727
23 | ACCGGAUGUGCUUUCUGGUCUGAUGAGUCAGUGAGGACGAAACAG [C16U C30A] | 0.831
24 | ACCGGAUGUGCUUUCCGGUCUGACGAGUCCGUGAGGACAAAACAG [U24C G39A] | 0.337
25 | ACCGGACGUGCUUUCCGGUCUGAUGAGUCCGUGAGGACGGAACAG [U7C A40G] | 0.382
26 | ACCGGAUGUGCUUUCCGGUUUGAUGAGUCCGUCAGGACGAAACAG [C20U G33C] | 0.682
27 | ACCGGUGGUGCUUUCCGGUCUGAUGAGUCCGUGAGGACGAAACAG [A6U U7G] | 0.829
28 | ACCGGAUGUGCUUUCCGGUCUGAUGAGUCCGUGAGAACGUAACAG [G36A A40U] | 0.384
29 | ACCGGAUCUGCUUUCCGGUCUGAUGAGUCCGUGAGUACGAAACAG [G8C G36U] | 0.772
30 | ACCGGAUGCGCUAUCCGGUCUGAUGAGUCCGUGAGGACGAAACAG [U9C U13A] | 1.18
31 | ACCCGAUGUGCUUUCCGGUCUGAUGAGUCCGCGAGGACGAAACAG [G4C U32C] | 0.736
32 | ACCGGAUGUGCUUUCCGGUCUGACGAGGCCGUGAGGACGAAACAG [U24C U28G] | 0.99
33 | CCCGGAUGUGCUUUCCGGUCUGAUGAGUCCGUGAGGACCAAACAG [A1C G39C] | 0.344
34 | ACCGGAUGUGCUUCCCGGUCUGAUGAGUCCCUGAGGACGAAACAG [U14C G31C] | 0.816
35 | ACCGGAUGUGCUUUCCGGUCUGAUUAGUCCCUGAGGACGAAACAG [G25U G31C] | 0.298
36 | GCCGGAUGUGCUUUCCGGUCUGAUGAGUCCGUGAAGACGAAACAG [A1G G35A] | 1.23
37 | ACCGGAUGUGCUUGCCGGUCGGAUGAGUCCGUGAGGACGAAACAG [U14G U21G] | 0.572
38 | UCCGGAUGUGCUCUCCGGUCUGAUGAGUCCGUGAGGACGAAACAG [A1U U13C] | 0.94

Row | Variant | self-cleavage
39 | ACCGGAUGAGCUUUCCGGUCUGAUGAGUCCUUGAGGACGAAACAG [U9A G31U] | 1.3
40 | ACCGGAUGUGCUUUCCGGUCUGAAGAGUCCUUGAGGACGAAACAG [U24A G31U] | 0.927
41 | ACCGGAUGUGCUUUCCGGUCUGUUGAGUCGGUGAGGACGAAACAG [A23U C30G] | 0.345
42 | ACCGGAUGUGCUUUCCGGUCUGAUGACUGCGUGAGGACGAAACAG [G27C C29G] | 0.279
43 | ACCCGAUGUGCUUUCCGGUCGGAUGAGUCCGUGAGGACGAAACAG [G4C U21G] | 0.239
44 | ACCGGAUGUGCUUUCCGGUCAGAUGAGUCCGUGAGGAAGAAACAG [U21A C38A] | 0.363
45 | ACCGGAUGUGCUUUCCGGUCUGAAGAGUCCGUGAGGACGAAGCAG [U24A A42G] | 0.24
46 | ACCGAAUGUGCUUUCCGGUGUGAUGAGUCCGUGAGGACGAAACAG [G5A C20G] | 0.286
47 | ACCGAAUGUGCUUUCCGGUAUGAUGAGUCCGUGAGGACGAAACAG [G5A C20A] | 0.415
48 | ACCGGAUGUGCUUUCCGGUCUAAUGAGUCCGUGAGGACGAAUCAG [G22A A42U] | 0.321
49 | ACCGGAUGUGCUUUCCGGUGUGCUGAGUCCGUGAGGACGAAACAG [C20G A23C] | 0.271
50 | CCCGGAUGUGCUUUCCGGUCUGAGGAGUCCGUGAGGACGAAACAG [A1C U24G] | 0.368
51 | ACCGGAUGUGCUUACCGGUCUGAUGAGUCCGUGAGAACGAAACAG [U14A G36A] | 0.485
52 | ACCGGAUGUGCUUUCCGGUCUGAUGAGUCCGUGAGAACUAAACAG [G36A G39U] | 0.322
53 | ACCGGAUGUGCUUUCCGGGCUGAUGAGUCCGUGAGGACGAAACAC [U19G G45C] | 0.312
54 | ACCGCAUGUGCUUUCCGGUCUGUUGAGUCCGUGAGGACGAAACAG [G5C A23U] | 0.221
55 | ACCGGAUGUGCUUUCUGGUCUGAAGAGUCCGUGAGGACGAAACAG [C16U U24A] | 0.747
56 | ACCGGAUGUGCUUUCAGGUCUGAUGAGUCCGUGAGGACGACACAG [C16A A41C] | 0.404
57 | ACCGGAUGUGCUUUCCGGUCUGAUGAGUCCGGGAGGACGAAACCG [U32G A44C] | 0.424
